The values below come from patent US20060040277A1 (published 2006).

The target in this experiment is T1, GST-ATIPmouse-short fusion protein (from pGEX-4T1-GST-ATIPmouse-short), on glutathione-agarose beads (mouse, UniProt Q5HZI1 937-1053).
T1 construct: also called GA-GST-ATIPmouse-short; GST-ATIPc; not shown: glutathione S-transferase (GST) encoded by pGEX-4T-1 (Pharmacia)
T1 sequence: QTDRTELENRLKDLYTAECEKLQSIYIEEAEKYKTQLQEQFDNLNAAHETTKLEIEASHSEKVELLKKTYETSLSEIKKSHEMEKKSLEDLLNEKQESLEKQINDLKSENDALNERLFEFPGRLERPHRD
The experiment can be described thus: GST pull-down, SDS-PAGE and immunoblot with anti-MBP. Background: Immunoblotting shows a protein as a band on a membrane.

B1: MBP-AT1: fusion of Maltose Binding Protein and the C-terminal end of the human AT1 receptor (Leu 297-Glu 359) (receptor, UniProt P30556 297-359, looked up, not shown: large carriers)
chain: LNPLFYGFLGKKFKRYFLQLLKYIPPKAKSHSNLSTKMSTLSYRPSDNVSSSTKKPAPCFEVE
notes: range 297-359
For the molecule B1, the binding result is listed as “no binding”.
